The source of these data is paper PMC5339286, “A Novel Soybean ERF Transcription Factor, GmERF113, Increases Resistance to Phytophthora sojae Infection in Soybean”.

The data set deals with GmERF113 (Glycine max (soybean) cv. Suinong 10, UniProt I1ML94 1-260). The data set is described as follows: EMSA; EMSA as described by Liu et al. (2006); buffer, salt, pH and temperature not stated. To be noted: protein: recombinant. (In EMSA bound probe runs differently from free probe, usually more slowly.)
Chain of GmERF113 (I1ML94 entry or part of it): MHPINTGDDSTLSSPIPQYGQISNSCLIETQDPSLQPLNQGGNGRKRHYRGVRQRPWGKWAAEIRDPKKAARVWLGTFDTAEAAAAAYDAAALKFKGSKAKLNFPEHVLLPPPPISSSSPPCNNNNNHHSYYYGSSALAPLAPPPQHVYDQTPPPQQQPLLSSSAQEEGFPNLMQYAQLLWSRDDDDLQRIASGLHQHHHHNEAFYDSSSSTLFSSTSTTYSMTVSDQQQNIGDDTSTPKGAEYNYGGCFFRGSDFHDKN

Positions count from the first letter of the chain named.

B1: GCC probe (GCC-box) (dsDNA)
DNA 1: ATCCATAAGAGCCGCCACTAAAATAAGACCGATCAA
DNA 2: TTGATCGGTCTTATTTTAGTGGCGGCTCTTATGGAT
Consider B1, for which the binding result is “binds”.

B2: mGCC probe (mutated GCC-box) (dsDNA)
DNA 1: B1 DNA 1 with G11T, G14T
DNA 2: B1 DNA 2 with C23A, C26A
Take B2: the binding result is “no binding”.
